According to patent publication US20210277128A1 (published 2021):
Blank lines part the entries; values can stand above or below the binder they belong to.

Tests used:
[1] = molecular target: T1, Monomeric EGFR extracellular domain (ProSpec Bio, PKA-344) (UniProt P00533 25-645, limits assumed); experiment: BLI (BLItz), antibody on anti-human IgG Fc tips, EGFR ECD 588 nM; benchmark antibody
T1 construct: extracellular domain; Bought reagent; also called EGFR ECD
Protocol: Monomeric EGFR extracellular domain binding was measured in a biolayer interferometry (BLI) binding assay on a BLItz instrument (ForteBio, Inc.). […] Binding of EGFR ECD to the tips was recorded as biolayer interferometry signals (Δnm) over an association time of 120 seconds.

[2] = molecular target: T2, SI-2C1, dimeric EGFR ECD fused to rabbit Fc (UniProt P00533 25-645, limits assumed); experiment: ELISA, dimeric EGFR ECD-rabbit Fc coated, anti-human IgG-HRP detection
T2 construct: extracellular domain; Made in house
Protocol: ELISA was performed using dimeric EGFR ECD reagent, SI-2C1, fused to rabbit Fc created in house. EGFR was coated onto Maxisorp immunoplates (Nunc) at 3 μg/mL in PBS at 4° C. overnight. Plates were blocked in PBS with 3% BSA and 0.05% Tween20 for 2 hours at room temperature. […] 3 washes with PBST (1% BSA) were performed between each step.

[3] = molecular target: T1, Monomeric EGFR extracellular domain …; experiment: BLI (BLItz), antibody on anti-human IgG Fc tips, EGFR ECD 200 nM then Her3 ECD 200 nM
Protocol: Bispecific binding to EGFR and Her3 extracellular domains was measured in a biolayer interferometry (BLI) binding assay on a BLItz instrument (ForteBio, Inc.). […] Binding of EGFR ECD to the tips was recorded as biolayer interferometry signals (Δnm) over an association time of 120 seconds.

binding result [1]: binds
B1: SI-1C4 (bispecific antibody, human IgG1, kappa, V domains shown)
VH: EVQLVESGGGLVQPGGSLRLSCAASGFTLSGDWIHWVRQAPGKGLEWVGEISAAGGYTDYADSVKGRFTISADTSKNTAYLQMNSLRAEDTAVYYCARESRVSFEAAMDYWGQGTLVTVSS
VL: DIQMTQSPSSLSASVGDRVTITCRASQNIATDVAWYQQKPGKAPKLLIYSASFLYSGVPSRFSGSGSGTDFTLTISSLQPEDFATYYCQQSEPEPYTFGQGTKVEIKR
notes: also called IC4

binding result [2]: binds
B2: SI-1C5 (antibody, human IgG1, kappa, V domains shown)
VH: QVQLQQSGAEVKKPGSSVKVSCKASGYTFTNYYIYWVRQAPGQGLEWIGGINPTSGGSNFNEKFKTRVTITVDESTNTAYMELSSLRSEDTAFYFCARQGLWFDSDGRGFDFWGQGSTVTVSS
VL: DIQMTQSPSSLSASVGDRVTITCRSSQNIVHSNGNTYLDWYQQTPGKAPKLLIYKVSNRFSGVPSRFSGSGSGTDFTFTISSLQPEDIATYYCFQYSHVPWTFGQGTKLQITR
notes: Monospecific anti-EGFR antibody

binding result [3]: binds
B3: SI-1X1 (bispecific antibody, human IgG1, kappa)
heavy: not shown
light: QSALTQPASVSGSPGQSITISCTGTSSDVGGYNFVSWYQQHPGKAPKLMIYDVSDRPSGVSDRFSGSKSGNTASLIISGLQADDEADYYCSSYGSSSTHVIFGGGTKLTVLRTVAAPSVFIFPPSDEQLKSGTASVVCLLNNFYPREAKVQWKVDNALQSGNSQESVTEQDSKDSTYSLSSTLTLSKADYEKHKVYACEVTHQGLSSPVTKSFNRGEC
notes: Tetravalent IgG-(G4S)2-scFv; heavy chain entry holds gamma-1 heavy chain, connector and scFv; Anti-Her3 IgG moiety, anti-EGFR scFv
